# From the supplement of paper PMC9112550, “Optimization of the antimicrobial peptide Bac7 by deep mutational scanning” (BMC Biology, 2022)
# Tested on: Escherichia coli TOP10
# Assay: shrunken log2 fold change of peptide-encoding DNA abundance (4.5 h post-induction vs induction); higher = less antimicrobial activity (less host growth inhibition)
# Conditions: time post-induction: 4.5 h; library: site-saturation at positions 5, 18, 19, 20
# 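Note: peptides expressed intracellularly from a pBAD plasmid library in pooled LB shake-flask culture, induced with 0.3% L-arabinose, DNA abundance read by NGS, three biological replicates, DESeq2 with apeglm shrinkage.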
row,Sequence,shrunken log2 fold change
1,RRIRLRPPRLPRPRPRPRLAPRP,0.624
2,RRIRWRPPRLPRPRPRPFVCPRP,-0.108
3,RRIRVRPPRLPRPRPRPMLPPRP,0.0351
4,RRIRPRPPRLPRPRPRPINIPRP,-1.15
5,RRIRERPPRLPRPRPRPCTHPRP,-1.36
6,RRIRNRPPRLPRPRPRPCGGPRP,-0.0209
7,RRIRHRPPRLPRPRPRPMVKPRP,-0.0243
8,RRIRPRPPRLPRPRPRPHGFPRP,-0.21
9,RRIRMRPPRLPRPRPRPTRTPRP,2.22
10,RRIRNRPPRLPRPRPRPDDVPRP,-0.0233
11,RRIRTRPPRLPRPRPRPSSNPRP,-0.589
12,RRIRQRPPRLPRPRPRPVMQPRP,0.0499
13,RRIRQRPPRLPRPRPRPFWWPRP,0.0308
14,RRIRIRPPRLPRPRPRPYKNPRP,-0.814
15,RRIRLRPPRLPRPRPRPTCPPRP,0.0694
16,RRIRSRPPRLPRPRPRPPWKPRP,-0.0556
17,RRIRIRPPRLPRPRPRPMHRPRP,-0.262
18,RRIRTRPPRLPRPRPRPPLWPRP,0.689
19,RRIRCRPPRLPRPRPRPDRLPRP,-0.335
20,RRIRGRPPRLPRPRPRPDDHPRP,0.18
21,RRIRIRPPRLPRPRPRPPIVPRP,-0.68
22,RRIRFRPPRLPRPRPRPPCRPRP,0.172
23,RRIRIRPPRLPRPRPRPHNYPRP,-0.376
24,RRIRPRPPRLPRPRPRPQAFPRP,-0.00213
25,RRIRCRPPRLPRPRPRPWWCPRP,-0.248

row,Sequence,shrunken log2 fold change
1,RRIRGRPPRLPRPRPRPIRCPRP,0.261
2,RRIRERPPRLPRPRPRPGHPPRP,0.143
3,RRIRRRPPRLPRPRPRPWKWPRP,-0.00244
4,RRIRDRPPRLPRPRPRPMKQPRP,-0.076
5,RRIRDRPPRLPRPRPRPDRNPRP,-0.0216
6,RRIRMRPPRLPRPRPRPTNRPRP,0.282
7,RRIRHRPPRLPRPRPRPSEPPRP,-0.206
8,RRIRQRPPRLPRPRPRPTRSPRP,0.164
9,RRIRTRPPRLPRPRPRPAAGPRP,0.375
10,RRIRFRPPRLPRPRPRPGWEPRP,0.0875
11,RRIRERPPRLPRPRPRPHCIPRP,-0.000243
12,RRIRIRPPRLPRPRPRPRCGPRP,0.0437
13,RRIRPRPPRLPRPRPRPSSCPRP,0.0133
14,RRIRKRPPRLPRPRPRPLRKPRP,0.968
15,RRIRWRPPRLPRPRPRPGVIPRP,0.0325
16,RRIRVRPPRLPRPRPRPYSQPRP,0.0117
17,RRIRQRPPRLPRPRPRPYCHPRP,-0.0183
18,RRIRWRPPRLPRPRPRPVPQPRP,0.282
19,RRIRLRPPRLPRPRPRPKYDPRP,-0.0843
20,RRIRPRPPRLPRPRPRPTPWPRP,0.427
21,RRIRIRPPRLPRPRPRPSAKPRP,-0.0328
22,RRIRQRPPRLPRPRPRPNQEPRP,-0.0578
23,RRIRGRPPRLPRPRPRPLYAPRP,0.64
24,RRIRTRPPRLPRPRPRPLRRPRP,0.323
25,RRIRTRPPRLPRPRPRPIFFPRP,0.0107

row,Sequence,shrunken log2 fold change
1,RRIRPRPPRLPRPRPRPQQLPRP,0.0282
2,RRIRGRPPRLPRPRPRPQWWPRP,0.53
3,RRIRTRPPRLPRPRPRPICPPRP,-0.0534
4,RRIRRRPPRLPRPRPRPFSAPRP,-0.274
5,RRIRIRPPRLPRPRPRPTAGPRP,-0.167
6,RRIRQRPPRLPRPRPRPEKSPRP,0.287
7,RRIRVRPPRLPRPRPRPVVLPRP,0.0921
8,RRIRRRPPRLPRPRPRPDPRPRP,0.12
9,RRIRTRPPRLPRPRPRPGLVPRP,0.0962
10,RRIRLRPPRLPRPRPRPLNFPRP,-0.268
11,RRIRSRPPRLPRPRPRPDDQPRP,0.143
12,RRIRCRPPRLPRPRPRPFQKPRP,0.0129
13,RRIRHRPPRLPRPRPRPFTIPRP,-0.0345
14,RRIRTRPPRLPRPRPRPNNKPRP,-0.474
15,RRIRGRPPRLPRPRPRPNIRPRP,-0.135
16,RRIRERPPRLPRPRPRPILAPRP,-0.349
17,RRIRTRPPRLPRPRPRPQSVPRP,-0.104
18,RRIRFRPPRLPRPRPRPKQGPRP,-0.00975
19,RRIRHRPPRLPRPRPRPFLHPRP,-0.449
20,RRIRTRPPRLPRPRPRPGYYPRP,-0.442
21,RRIRRRPPRLPRPRPRPQKWPRP,0.136
22,RRIRFRPPRLPRPRPRPRPSPRP,0.433
23,RRIRNRPPRLPRPRPRPDSQPRP,-0.0699
24,RRIRPRPPRLPRPRPRPCPDPRP,0.0391
25,RRIRHRPPRLPRPRPRPSGLPRP,0.0123
